Measurements published in the RNAGym collection of RNA variant scans (doi:10.1073/pnas.2313332121).

B1: TPR t1 (parent)
chain: GACCAAUCUGCCCUCAGAGCUCGAGAACAUCUUCGGAUGCAGAGGAGGCAGGCUUCGGUGGCGCGAUAGCGCCAACGUCCUCAACCUCCAAUGCAUCCCACCACAUGAUGAUGCCUGAAGAGCCUUGGUUUUUUG

Variants of: B1
Assay: polymerase ribozyme fitness, log enrichment relative to wild type (log ratio); higher = more active; in vitro selection for triplet polymerase activity
In short: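 Genotype fitness is the logarithm of its enrichment divided by wild-type enrichment, using inverse-variance-weighted averages of replicates. That logarithm is base 2. Enrichment was measured by Illumina sequencing of input and output libraries from one triplicate in vitro selection round, with frozen incubation at −7 °C, on PCR-built, transcribed mutant libraries of each subunit of a heterodimeric triplet polymerase ribozyme, retaining genotypes with ≥10 input reads and ≥1 read per output.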

Row | Variant | polymerase ribozyme fitness (log ratio)
1 | GACCAAUCUGCCCUCAGAGCUCGAGAACAUCUUCGGAUGCAGAGGAGGCAGGCUUCGGUCGCGCGAUAGCGCCAACGUCCUCAACAUCCAAUGCAUGCCACCACAUGAUGAUGCCCGAAGAGCCUUGGUUUUUUG [G60C C86A C97G U116C] | -4.3
2 | GACCAAUCUGCCCUCAGAGCUCGAGAACAUCUUCGGAUGCAGAGGAGGCAGGCUUCGGUCGCGCGAUAGCGCCAACGUCCUCAACCUCCAAUGCAUCCCACCACAUGAUGAUGCCUGAAGAGCCUUGAUUUUUUG [G60C G128A] | -2.48
3 | GACCAAUCUGCCCUCAGAGCUCGAGAACAUCUUCGGAUGCAGAGGAGGCAGGCUUCGGUCGCGCGAUAGCGCCAACGUCCUCAACCUCCAAUGCAUCCCACCACAUGAUGAUGCCCGAAGAGCCUUGGUUUUUUG [G60C U116C] | -1.73
4 | GACCAAUCUGCCCUCAGAGCUCGAGAACAUCUUCGGAUGCAGAGGAGGCAGGCUUCGGUCGCGCGAUAGCGCCAACGUCCUCAACCUCCAAUGCAUCCCACCACAUGAUAAUGCCUGAAGAGCCUUGGUUUUUUG [G60C G110A] | -1
5 | GACCAAUCUGCCCUCAGAGCUCGAGAACAUCUUCGGAUGCAGAGGAGGCAGGCUUCGGUCGCGCGAUAGCGCCAACGUCCUCAACCUCCAAUGCAUCCCACCACAUGAUGAUGCCUGAAGUGCCUUGGUUUUUUG [G60C A121U] | 1.85
6 | GACCAAUCUGCCCUCAGAGCUCGAGAACAUCUUCGGAUGCAGAGGAGGCAGGCUUCGGUCGCGCGAUAGCGCCAACGUCCUCAACCUCCAAUGUAUCCCACCACAUGAUGAUGCCUGAAGAGCCUUGGUUUUUUG [G60C C94U] | -0.143
7 | GACCAAUCUGCCCUCAGAGCUCGAGAACAUCUUCGGAUGCAGAGGAGGCAGGCUUCGGUCGCGCGAUAGCGCCAACGUCCUCAACCUCCAAUGGAUCCCACCACAUGAUGAUGCCUGAAGAGCCUUGGUUUUUUG [G60C C94G] | -1.12
8 | GACCAAUCUGCCCUCAGAGCUCGAGAACAUCUUCGGAUGCAGAGGAGGCAGGCUUCGGUCGCGCGAUAGCGCCAACGUCCUCAACCUCCAAUGCAUCCCACCACAUGAUGAUGCCUGAAGAGCCUUGGGUUUUUG [G60C U129G] | -1.43
9 | GACCAAUCUGCCCUCAGAGCUCGAGAACAUCUUCGGAUGCAGAGGAGGCAGGCUUCGGUCGCGCGAUAGCGCCAACGUCCUCAACCUCCAAUGCAUCCCACCACAUGAUGAUGCCUGAAGAGCCUUUGUUUUUUG [G60C G127U] | -0.837
10 | GACCAAUCUGCCCUCAGAGCUCGAGAACAUCUUCGGAUGCAGAGGAGGCAGGCUUCGGUCGCGCGAUAGCGCCAACGUCCCCAACCUCCAAUGCAUCCCACCACAUGAUGAUGCCUGAAGAGCCUUGGUUUUUUG [G60C U81C] | -0.172
11 | GACCAAUCUGCCCUCAGAGCUCGAGAACAUCUUCGGAUGCAGAGGAGGCAGGCUUCGGUCUCGCGAUAGCGCCAACGUCCUCAACCUCCAAUGCAUCCCACCACAUGAUGAUGCCUGAAGAGCCUUGGUUUUUUG [G60C G61U] | -1.76
12 | GACCAAUCUGCCCUCAGAGCUCGAGAACAUCUUCGGAUGCAGAGGAGGCAGGCUUCGGUCGCGCGAUAGCGCCAACGUCCUCAACCUCCAAUGCAUCCCACCACAUGAUGAUGCAUGAAGAGCCUUGGUUUUUUG [G60C C115A] | 0.199
13 | GACCAAUCUGCCCUCAGAGCUCGAGAACAUCUUCGGAUGCAGAGGAGGCAGGCUUCGGUCGCGCGAUAGCGCCAACGUCCUCAACAUCCAAUGCAUCCCACCACAUGAUGAUGCCUGAAGAGCCUUGGUUUUUUG [G60C C86A] | -2.44
14 | GACCAAUCUGCCCUCAGAGCUCGAGAACAUCUUCGGAUGCAGAGGAGGCAGGCUUCGGUCGCGCGAUAGCGCCAACGUCCUCAACUUCCAAUGCAUCCCACCACAUGAUGAUGCCUGAAGAGCCUUGGUUUUUUG [G60C C86U] | 0.269
15 | GACCAAUCUGCCCUCAGAGCUCGAGAACAUCUUCGGAUGCAGAGGAGGCAGGCUUCGGUCGCGCGAUAGCGCCAACGUCCUCAACCUUCAAUGCAUCCCACCACAUGAUGAUGCCUGAAGAGCCUUGGUUUUUUG [G60C C88U] | -0.669
16 | GACCAAUCUGCCCUCAGAGCUCGAGAACAUCUUCGGAUGCAGAGGAGGCAGGCUUCGGUCGCGCGAUAGCGCCAACGACCUCAACCUCCAAUGCAUCCCACCACAUGAUAUUGCCUGAAGAGCAUUGGUUUUAUG [G60C U78A G110A A111U C124A U133A] | -2.76
17 | GACCAAUCUGCCCUCAGAGCUCGAGAACAUCUUCGGAUGCAGAGGAGGCAGGCUUCGGUCGCGCGAUAGCUCCAACGUCCUCAACCUCCAAUGCAUCCCACCACAUGAUGAUGCCUGAAUAGCCUUGGUGUUUUG [G60C G71U G120U U130G] | -5.39
18 | GACCAAUCUGCCCUCAGAGCUCGAGAACAUCUUCGGAUGCAGAGGAGGCAGGCUUCGGUCGCGCGAUAGCGCCAACGUCCUCAACCUCCAAUGGAUCCCACCACAUGAUGAUGCCCGAAGAGUCUUGGUUUUUUG [G60C C94G U116C C123U] | -3.28
19 | GACCAAUCUGCCCUCAGAGCUCGAGAACAUCUUCGGAUGCAGAGGAGGCAGGCUUCGGUCGCGCGAUAGCGCCAACGUCCUCAACCUCCAAUGCAUCCCACCACAUGAUGAUGCCUGAAGAGCUUUGGUUUUUUG [G60C C124U] | 1
20 | GACCAAUCUGCCCUCAGAGCUCGAGAACAUCUUCGGAUGCAGAGGAGGCAGGCUUCGGUCGCGCGAUAGCGCCAACGUCCUCAACCUCCAAUCCAUCCCACCACAUGAUGAUGCCUGAAAAGCCUCGGUUUUUUG [G60C G93C G120A U126C] | -0.901
21 | GACCAAUCUGCCCUCAGAGCUCGAGAACAUCUUCGGAUGCAGAGGAGGCAGGCUUCGGUCGCGGGAUAGCGCCAACGUCCUCAACCUCCGAUGCAUCCCACCACCUGAUGAUGCCUCAAGAGCCUUGAUUUUCGG [G60C C64G A90G A105C G117C G128A U133C U134G] | -4.98
